Key:
FcγRIIβ [1] = target: FcγRIIβ (UniProt P31994); assay: ratio of the chip-kinetics KDs on Hu FcgRIIB and Hu FcgRIIA_R167
FcγRIIβ [2] = target: FcγRIIβ (UniProt P31994); assay: ratio of the chip-kinetics KDs on Hu FcgRIIA_R167 and Hu FcgRIIB
[3] = target: human FcγRIIα_R167 (human) (UniProt P12318); assay: chip kinetics; antibody captured on protein A/G, receptor injected as analyte
FcγRIIβ [4] = target: FcγRIIβ (UniProt P31994); assay: as above
[5] = target: human FcγRIIα_H167 (human) (UniProt P12318); assay: as above
human FcγRIIα_H167 (human), sequence (P12318 36-218): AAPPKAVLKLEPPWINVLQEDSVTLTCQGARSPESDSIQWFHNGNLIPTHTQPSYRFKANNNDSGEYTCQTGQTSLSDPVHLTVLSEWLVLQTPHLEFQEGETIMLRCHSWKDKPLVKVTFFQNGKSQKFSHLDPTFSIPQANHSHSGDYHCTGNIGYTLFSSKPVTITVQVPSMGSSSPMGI

FcγRIIβ, sequence (P31994 46-217): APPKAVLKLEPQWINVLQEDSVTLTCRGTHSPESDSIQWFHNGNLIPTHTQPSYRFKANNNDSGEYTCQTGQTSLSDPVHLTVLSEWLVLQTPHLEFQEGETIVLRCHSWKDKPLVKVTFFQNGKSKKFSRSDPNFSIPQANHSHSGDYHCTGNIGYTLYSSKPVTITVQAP
human FcγRIIα_R167 (human), sequence (P12318 36-218 H167R): as the sequence (P12318 36-218) above, with H132R counted along it

Row | Ratio iib/iia (KD human iib/KD human iia R) (FcγRIIβ [1]) | Ratio iia/iib (KD human iia R/KD human iib) (FcγRIIβ [2]) | Fold = KD(IgG WT)/KD(variants) [3] [fold] | Fold = KD(IgG WT)/KD(variants) (FcγRIIβ [4]) [fold] | Kd (FcγRIIβ [4]) [nM] | Kd [3] [nM] | Kd [5] [nM] | Substance
1 | 0.32 | 3.12 | < 0.3 | 3.18 | 1600 | – | – | IgG1 P238D (antibody)
2 | – | – | – | – | – | 1550 | 1000 | IgG1 WT (antibody)

Reference: patent publication US20250074984A1
